Data published in patent publication US20110300138A1 (published 2011).
Read-outs that look alike come from different tables or passages of the source. Blank lines part the entries; values can stand above or below the molecule they belong to.

Tests used:
[1] = target: full length human TSHR with mutation Arg255 Asp (human) (UniProt P16473); test: TSHR260-AP bridge ELISA, Arg255 Asp TSHR on wells; IgG at 0.5 µg/mL in HBD
[2] = target: TSH receptor (TSHR), full length human, coated on tubes (human) (UniProt P16473); test: inhibition of 125I-TSH binding to TSHR coated tubes; 1 µg/mL, diluted in HBD serum pool
[3] = target: TSHR260-AP (human); test: TSHR260-AP bridge ELISA (full length TSHR on wells, TSHR260-AP in solution); IgG 0.05 µg/mL diluted in assay buffer
[4] = target: wild type TSHR expressed in CHO cells (human) (UniProt P16473); test: cell-based or functional assay
[5] = target: TSHR with His105 mutated to Ala (expressed in CHO cells) (human) (UniProt P16473); test: cell-based or functional assay
[6] = target: wild type TSHR (human) (UniProt P16473); test: cell-based or functional assay
[7] = target: wild type TSHR expressed in CHO cells (human) (UniProt P16473); test: cell-based or functional assay; remark: listed apart in the source
[8] = target: wild type human TSHR (full length) expressed in CHO cells (human) (UniProt P16473); test: cell-based or functional assay
[9] = target: TSHR with Gln235 mutated to Ala expressed in CHO cells (human) (UniProt P16473); test: cell-based or functional assay
[10] = target: wild type TSHR (human TSH receptor, full length) expressed in CHO cells (human) (UniProt P16473); test: cell-based or functional assay
[11] = target: TSHR with Lys129 mutated to Ala, expressed in CHO cells (human) (UniProt P16473); test: cell-based or functional assay

Molecule: M22 IgG (antibody)
- Mean absorbance at 405 nm (absorbance at 405 nm) [1]: 0.262
- Mean absorbance at 405 nm (absorbance at 405 nm) [3]: 0.484

Molecule: 5B3 IgG (antibody)
- Inhibition of binding (%) [2]: -4.9%
- % inhibition of TSH stimulation; 5B3 10 µg/mL [4]: 2%
- Cyclic AMP produced; 5B3 10 µg/mL + TSH 3 ng/mL [4]: 91.6 pmol/mL
- Cyclic AMP produced; 5B3 100 µg/mL + TSH 3 ng/mL [4]: 134 pmol/mL
- % inhibition of TSH stimulation; 5B3 10 µg/mL [5]: 0%
- % inhibition of TSH stimulation; 5B3 100 µg/mL [5]: 0%
- Cyclic AMP produced; 5B3 10 µg/mL + TSH 3 ng/mL [5]: 75.2 pmol/mL
- Cyclic AMP produced; 5B3 100 µg/mL + TSH 3 ng/mL [5]: 66.7 pmol/mL
- Mutated/wild type (%) of cyclic AMP produced; 5B3 10 µg/mL + TSH 3 ng/mL [5]: 82%
- Mutated/wild type (%) of cyclic AMP produced; 5B3 100 µg/mL + TSH 3 ng/mL [5]: 50%
- % inhibition of TSH stimulation, 5B3 10 µg/mL, wild type TSHR [6]: 0%
- % inhibition of TSH stimulation, 5B3 100 µg/mL, wild type TSHR [6]: 3%
- Cyclic AMP produced (pmol/mL), 5B3 10 µg/mL + TSH 3 ng/mL, wild type TSHR [6]: 126 pmol/mL
- Cyclic AMP produced (pmol/mL), 5B3 100 µg/mL + TSH 3 ng/mL, wild type TSHR [6]: 97.3 pmol/mL
- % inhibition of TSH stimulation (stimulator given as M22), wild type TSHR; 5B3 10 µg/mL [7]: 0%
- % inhibition of TSH stimulation (stimulator given as M22), wild type TSHR; 5B3 100 µg/mL [7]: 0%
- % inhibition of TSH stimulation, wild type TSHR; 5B3 10 µg/mL [7]: 0%
- % inhibition of TSH stimulation, wild type TSHR; 5B3 100 µg/mL [7]: 0%
- % inhibition of TSH stimulation; 5B3 10 µg/mL [7]: 0%
- % inhibition of TSH stimulation; 5B3 10 µg/mL; Experiment 1 [7]: 0%
- % inhibition of TSH stimulation; 5B3 10 µg/mL; Experiment 2 [7]: 0%
- % inhibition of TSH stimulation; 5B3 100 µg/mL [7]: 0%
- % inhibition of TSH stimulation; 5B3 100 µg/mL; Experiment 1 [7]: 0%
- % inhibition of TSH stimulation; 5B3 100 µg/mL; Experiment 2 [7]: 8%
- Cyclic AMP produced; 5B3 10 µg/mL + TSH 3 ng/mL [7]: 103 pmol/mL
- Cyclic AMP produced; 5B3 10 µg/mL + TSH 3 ng/mL; Experiment 1 [7]: 82.8 pmol/mL
- Cyclic AMP produced; 5B3 10 µg/mL + TSH 3 ng/mL; Experiment 2 [7]: 106 pmol/mL
- Cyclic AMP produced; 5B3 100 µg/mL + TSH 3 ng/mL [7]: 94.8 pmol/mL
- Cyclic AMP produced; 5B3 100 µg/mL + TSH 3 ng/mL; Experiment 1 [7]: 80.7 pmol/mL
- Cyclic AMP produced; 5B3 100 µg/mL + TSH 3 ng/mL; Experiment 2 [7]: 90.4 pmol/mL
- Experiment 1: % inhibition of TSH stimulation; 5B3 10 µg/mL [7]: 0%
- Experiment 1: % inhibition of TSH stimulation; 5B3 100 µg/mL [7]: 0%
- Experiment 1; % inhibition of TSH stimulation; 5B3 10 µg/mL [7]: 0%
- Experiment 1; % inhibition of TSH stimulation; 5B3 100 µg/mL [7]: 7%
- Experiment 1; cyclic AMP produced; 5B3 10 µg/mL + TSH 3 ng/mL [7]: 79.6 pmol/mL
- Experiment 1; cyclic AMP produced; 5B3 100 µg/mL + TSH 3 ng/mL [7]: 72.7 pmol/mL
- Experiment 2: % inhibition of TSH stimulation; 5B3 10 µg/mL [7]: 0%
- Experiment 2: % inhibition of TSH stimulation; 5B3 100 µg/mL [7]: 0%
- Experiment 2; % inhibition of TSH stimulation; 5B3 10 µg/mL [7]: 0%
- Experiment 2; % inhibition of TSH stimulation; 5B3 100 µg/mL [7]: 0%
- Experiment 2; cyclic AMP produced; 5B3 10 µg/mL + TSH 3 ng/mL [7]: 107 pmol/mL
- Experiment 2; cyclic AMP produced; 5B3 100 µg/mL + TSH 3 ng/mL [7]: 101 pmol/mL
- % inhibition of TSH stimulation; 5B3 10 µg/mL ([7]; record 2): 0%
- % inhibition of TSH stimulation; 5B3 100 µg/mL ([7]; record 2): 0%
- Cyclic AMP produced; 5B3 10 µg/mL + TSH 3 ng/mL ([7]; record 2): 83.6 pmol/mL
- Cyclic AMP produced; 5B3 100 µg/mL + TSH 3 ng/mL ([7]; record 2): 88 pmol/mL
- % inhibition of TSH stimulation, 5B3 10 µg/mL, wild type TSHR [8]: 0%
- % inhibition of TSH stimulation, 5B3 100 µg/mL, wild type TSHR [8]: 0%
- Cyclic AMP produced (pmol/mL), 5B3 10 µg/mL + TSH 3 ng/mL, wild type TSHR [8]: 106 pmol/mL
- Cyclic AMP produced (pmol/mL), 5B3 100 µg/mL + TSH 3 ng/mL, wild type TSHR [8]: 104 pmol/mL
- Experiment 1: % inhibition of TSH stimulation; 5B3 10 µg/mL [9]: 0%
- Experiment 1: % inhibition of TSH stimulation; 5B3 100 µg/mL [9]: 0%
- Experiment 1: Mutated/wild type (%) of cyclic AMP produced; 5B3 10 µg/mL + TSH 3 ng/mL [9]: 80%
- Experiment 1: Mutated/wild type (%) of cyclic AMP produced; 5B3 100 µg/mL + TSH 3 ng/mL [9]: 63%
- Experiment 2: % inhibition of TSH stimulation; 5B3 10 µg/mL [9]: 14%
- Experiment 2: % inhibition of TSH stimulation; 5B3 100 µg/mL [9]: 0%
- Experiment 2: Mutated/wild type (%) of cyclic AMP produced; 5B3 10 µg/mL + TSH 3 ng/mL [9]: 77%
- Experiment 2: Mutated/wild type (%) of cyclic AMP produced; 5B3 100 µg/mL + TSH 3 ng/mL [9]: 95%
- % inhibition of TSH stimulation; 5B3 10 µg/mL [10]: 0%
- % inhibition of TSH stimulation; 5B3 10 µg/mL; Experiment 1 [10]: 3%
- % inhibition of TSH stimulation; 5B3 10 µg/mL; Experiment 2 [10]: 0%
- % inhibition of TSH stimulation; 5B3 100 µg/mL [10]: 0%
- % inhibition of TSH stimulation; 5B3 100 µg/mL; Experiment 1 [10]: 0%
- % inhibition of TSH stimulation; 5B3 100 µg/mL; Experiment 2 [10]: 0%
- Cyclic AMP produced; 5B3 10 µg/mL + TSH 3 ng/mL [10]: 53.9 pmol/mL
- Cyclic AMP produced; 5B3 10 µg/mL + TSH 3 ng/mL; Experiment 1 [10]: 65.8 pmol/mL
- Cyclic AMP produced; 5B3 10 µg/mL + TSH 3 ng/mL; Experiment 2 [10]: 68.6 pmol/mL
- Cyclic AMP produced; 5B3 100 µg/mL + TSH 3 ng/mL [10]: 52.6 pmol/mL
- Cyclic AMP produced; 5B3 100 µg/mL + TSH 3 ng/mL; Experiment 1 [10]: 68.5 pmol/mL
- Cyclic AMP produced; 5B3 100 µg/mL + TSH 3 ng/mL; Experiment 2 [10]: 66.5 pmol/mL
- % inhibition of TSH stimulation; 5B3 10 µg/mL [11]: 0%
- % inhibition of TSH stimulation; 5B3 100 µg/mL [11]: 13%
- Cyclic AMP produced; 5B3 10 µg/mL + TSH 3 ng/mL [11]: 50.5 pmol/mL
- Cyclic AMP produced; 5B3 100 µg/mL + TSH 3 ng/mL [11]: 42.6 pmol/mL
- Mutated/wild type (%) of cyclic AMP produced; 5B3 10 µg/mL + TSH 3 ng/mL [11]: 94%
- Mutated/wild type (%) of cyclic AMP produced; 5B3 100 µg/mL + TSH 3 ng/mL [11]: 81%
- Mean absorbance at 405 nm (absorbance at 405 nm) [3]: -0.009

Other lines, results leading:

- Mean absorbance at 405 nm (absorbance at 405 nm) [1]: 0.242
- Inhibition of binding (%) [2]: 50.8%
Molecule: 9D33 IgG (antibody)

- Mean absorbance at 405 nm (absorbance at 405 nm) [3]: -0.008
B1: 5C9 IgG (antibody, from another filing, V domains shown)
VH: EVQLVESGGGLIQPGGSLRLSCAASGFTVSSNYMSWVRQAPGKGLEWVSVTYSGGSTSYADSVKGRFTISRDNSKNTLYLQMNSLRAEDTAVYYCARGGRYCSSISCYARSGCDYWGQGTLVTVSS
VL: AIQMTQSPSSLSASVGDRVTITCRASQSISNYLNWYQQKPGKAPKLLIYAASSLQSGVPSRFSGSGSGTDFTLTISSLQPEDFATYYCQQSYSSPSTTFGQGTKLEIK
